Data taken from article PMC4036362, “Normal Activation of Discoidin Domain Receptor 1 Mutants with Disulfide Cross-links, Insertions, or Deletions in the Extracellular Juxtamembrane Region” (The Journal of Biological Chemistry, 2014).

B1: DDR1 mutant [human] / itself (parent)
chain: DADMKGHFDPAKCRYALGMQDRTIPDSDISASSSWSDSTAARHSRLESSDGDGAWCPAGSVFPKEEEYLQVDLQRLHLVALVGTQGRHAGGLGKEFSRSYRLRYSRDGRRWMGWKDRWGQEVISGNEDPEGVVLKDLGPPMVARLVRFYPRADRVMSVCLRVELYGCLWRDGLLSYTAPVGQTMYLSEAVYLNDSTYDGHTVGGLQYGGLGQLADGVVGLDDFRKSQELRVWPGYDYVGWSNHSFSSGYVEMEFEFDRLRAFQAMQVHSNNMHTLGARLPGGVECRFRRGPAMAWEGEPMRHNLGGNLGDPRARAVSVPLGGRVARFLQCRFLFAGPWLLFSEISFISDVVNNSSPALGGTFPPAPWWPPGPPPTNFSSLELEPRGQQPVAKAEGSPTAILIGCLVAIILLLLLIIALMLWRLHWRRLLSKAERRVLEEELTVHLSVPGDTILINNRPGPREPPPYQEPRPRGNPPHSAPCVPNGSALLLSNPAYRLLLATYARPPRGPGPPTPAWAKPTNTQAYSGDYMEPEKPGAPLLPPPPQNSVPHYAEADIVTLQGVTGGNTYAVPALPPGAVGDGPPRVDFPRSRLRFKEKLGEGQFGEVHLCEVDSPQDLVSLDFPLNVRKGHPLLVAVKILRPDATKNARNDFLKEVKIMSRLKDPNIIRLLGVCVQDDPLCMITDYMENGDLNQFLSAHQLEDKAAEGAPGDGQAAQGPTISYPMLLHVAAQIASGMRYLATLNFVHRDLATRNCLVGENFTIKIADFGMSRNLYAGDYYRVQGRAVLPIRWMAWECILMGKFTTASDVWAFGVTLWEVLMLCRAQPFGQLTDEQVIENAGEFFRDQGRQVYLSRPPACPQGLYELMLRCWSRESEQRPPFSQLHRFLAEDALNTV

Variants of: B1
Assay: disulfide cross-linking, nonreducing SDS-PAGE and Western blotting with anti-DDR1 antibodies
Conditions: transiently transfected HEK293 cells, lysed in 30 mM NEM, read off a plot
[1] = 10 μg/ml collagen I for 90 min at 37 °C

Row | Variant | screen value (10 μg/ml collagen I for 90 min at 37 °C, dimeric plus higher oligomeric forms) [%] | screen value [1] [%] | screen value (unstimulated, dimeric plus higher oligomeric forms) [%] | screen value (unstimulated) [%]
1 | chain 1 A399C | 59 | 59 | 61 | 61
2 | chain 1 I402C |  | 62 |  | 65
3 | chain 1 V390C C404A |  | 85 |  | 
4 | chain 1 T398C |  | 93 |  | 94
5 | chain 1 E394C C404A |  | 81 |  | 83
6 | chain 1 I400C |  | 56 |  | 60
7 | chain 1 L405C |  | 3.5 |  | 5
8 | chain 1 A391C |  | 80 |  | 81
9 | chain 1 E394C |  | 72 |  | 75
10 | chain 1 K392C |  | 76 |  | 81
11 | chain 1 L401C |  | 61 |  | 60
12 | chain 1 L405C C404A |  | 4.5 |  | 3.5
13 | chain 1 G403C C404A |  | 35 |  | 37
14 | chain 1 G403C |  | 30 |  | 32
15 | chain 1 S396C |  | 82 |  | 84
16 | chain 1 P397C |  | 81 |  | 82
17 | chain 1 V390C |  | 82 |  | 83
18 | chain 1 A393C |  | 81 |  | 84
19 | chain 1 C404A |  |  |  | 4.5
20 | chain 1 G395C |  |  |  | 73
